Experimental data published in patent US20220204611A1 (Amgen, published 2022).
Residue numbers refer to the chain shown, from its start.

B1: V51 (Fab, V domains shown)
VH: EVQLVQSGAEVKKPGESLKISCKGSGYSFTSYWIAWVRQMPGKGLEWMGIIYPGDSDVRYSPSFQGQVTISADKSISTAYLQWSSLKASDTAMYFCARGRTFYYDSSDYFDNWGQGTLVTVSS
VL: DIQMTQSPSSVSASVGDRVTITCRASQGISSWLAWYQQKPGKAPKLLIYAASSRQNGVPSRFSGSGSGTDFTLTISSLQPEDFATYFCQQADSFPRTFGQGTKLEIK
B2: V62 (Fab, V domains shown)
VH: B1 VH with T30G, V58T, S61A, G99Q, D108G, N112Y
VL: B1 VL with R54L, N56R, Q89G
B3: V73 (Fab, V domains shown)
VH: B1 VH with T30G, V58T, S63G, N112Y
VL: B1 VL with F94Y
B4: V61 (Fab, V domains shown)
VH: B1 VH with T30S, V58T, S61N, N112Y
VL: B1 VL with R54L, Q55V, F94L
B5: V85 (Fab, V domains shown)
VH: B1 VH with T30R, I50T, V58T, G99S, N112Y
VL: B1 VL
B6: V84 (Fab, V domains shown)
VH: B1 VH with S28G, V58T, G99Q, F110S, N112Y
VL: B1 VL with A50G, R54L
B7: V75 (Fab, V domains shown)
VH: B1 VH with V58T, N112Y
VL: B1 VL with R54L, N56A, F94Y
B8: V76 (Fab, V domains shown)
VH: B1 VH with T30G, V58T, S63E, G99Q, F110S, N112Y
VL: B1 VL with R54L, N56K, T69R
B9: V53 (Fab, V domains shown)
VH: B1 VH with V58T, S63H, G99Q, N112Y
VL: B1 VL with R54L
B10: V60 (Fab, V domains shown)
VH: B1 VH with S28H, G99Q, F110S, N112Y
VL: B1 VL with R54L, N56R, Q89G
B11: V89 (Fab, V domains shown)
VH: B1 VH with V58T, G99Q, N112Y
VL: B1 VL with R54L, F94H
B12: V52 (Fab, V domains shown)
VH: B1 VH with T30E, V58T, N112Y
VL: B1 VL with R54L, N56R, S93R
B13: V86 (Fab, V domains shown)
VH: B1 VH with T30G, I34L, V58T, Q65E, G99S, N112Y
VL: B1 VL
B14: V63 (Fab, V domains shown)
VH: B1 VH with T30R, V58T, G99S, N112Y
VL: B1 VL with R54L, N56R, S93R
B15: V77 (Fab, V domains shown)
VH: B1 VH with V58T, G99Q, N112Y
VL: B1 VL
B16: V72 (Fab, V domains shown)
VH: B1 VH with A35G, V58T, N112Y
VL: B1 VL with R54L, Q55V, F94Y
B17: V87 (Fab, V domains shown)
VH: B1 VH with T30R, S63D, G99S, N112Y
VL: B1 VL with R54L, N56W
B18: V74 (Fab, V domains shown)
VH: B1 VH with T30A, N112Y
VL: B1 VL with R54L, N56L
B19: V88 (Fab, V domains shown)
VH: B1 VH with T30G, V58T, G99Q, N112Y
VL: B1 VL with S53R, R54L, N56R, F94S
B20: 12G10 (antibody, human IgG2, V domains shown)
VH: EVQLLESGGGLVQPGGSLRLSCAASGFTFSSYAMSWVRQAPGKGLEWVSAIGGGGVSTYCADSVKGRFTISRDNSKNTLYLQMNSLRAEDTAVYYCAKFYIAVAGSHFDYWGQGTLVTVSS
VL: QAVPTQPSSLSASPGVLASLTCTLRSGINVGTYRIYWYQQKPGSPPQYLLRYKSDSDKQQGSGVPSRFSGSKDASANAGILLISGLQSEDEADYYCMIWYSSAVVFGGGTKLTVL
B21: 14C12 (antibody, human IgG2, V domains shown)
VH: EVQLVQSGAEVKKPGESLMISCKGSGYSFTSYWIGWVRQMPGKGLEWMGIIYPGDSDTRYSPSFQGQVTISADKSISTAYLQWSSLKASDTAMYFCARRRQGIWGDALDFWGQGTLVTVSS
VL: EIVMTQSPATLSVSPGERATLSCRASQSVSSNLAWFQQKPGQAPRLLIYGASTRATGIPARFSVSGSGTEFTLTISSLQSEDFAVYYCLQDNNWPPTFGPGTKVDIK
notes: human IgG2 from hybridoma

Each binder was assayed against T1, human TREM2 (human, UniProt Q9NZC2 19-174, limits assumed) (assay: yeast-displayed Fab FACS, 2nd screen 10 nM).
T1 sequence: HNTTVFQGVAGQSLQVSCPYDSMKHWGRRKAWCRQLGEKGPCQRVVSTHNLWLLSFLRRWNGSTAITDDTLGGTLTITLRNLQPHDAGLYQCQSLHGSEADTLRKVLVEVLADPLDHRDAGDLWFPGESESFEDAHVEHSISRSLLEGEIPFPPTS

| Binder | binding signal fold over 6E7 parental |
| --- | --- |
| B1 | 3.18 fold |
| B2 | 2.89 fold |
| B3 | 5.44 fold |
| B4 | 5.22 fold |
| B5 | 5.37 fold |
| B6 | 1.62 fold |
| B7 | 4.52 fold |
| B8 | 4.93 fold |
| B9 | 1.17 fold |
| B10 | 3.63 fold |
| B11 | 1.46 fold |
| B12 | 3.09 fold |
| B13 | 5.02 fold |
| B14 | 3.71 fold |
| B15 | 1.38 fold |
| B16 | 4.01 fold |
| B17 | 3.93 fold |
| B18 | 4.01 fold |
| B19 | 5.3 fold |

Each binder was assayed against T1, human TREM2 (assay: yeast-displayed Fab FACS, 1st screen 10 nM).

| Binder | binding signal fold over 6E7 parental |
| --- | --- |
| B1 | 2.81 fold |
| B2 | 2.49 fold |
| B3 | 5.12 fold |
| B4 | 5.08 fold |
| B5 | 5.41 fold |
| B6 | 1.44 fold |
| B7 | 4.64 fold |
| B8 | 4.57 fold |
| B9 | 1.25 fold |
| B10 | 3.26 fold |
| B11 | 1.33 fold |
| B12 | 3 fold |
| B13 | 4.8 fold |
| B14 | 3.76 fold |
| B15 | 1.43 fold |
| B16 | 3.64 fold |
| B17 | 3.84 fold |
| B18 | 3.94 fold |
| B19 | 4.92 fold |

Each binder was assayed against T2, human TREM2 on cells (human, UniProt Q9NZC2 19-230) (assay: cell-based or functional assay).
T2 sequence: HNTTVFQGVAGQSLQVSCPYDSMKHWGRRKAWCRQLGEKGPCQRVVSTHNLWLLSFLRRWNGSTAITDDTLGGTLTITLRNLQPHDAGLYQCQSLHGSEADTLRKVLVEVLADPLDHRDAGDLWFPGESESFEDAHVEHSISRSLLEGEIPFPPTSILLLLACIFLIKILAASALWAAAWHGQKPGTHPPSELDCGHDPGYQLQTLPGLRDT

| Binder | pSyk EC50 |
| --- | --- |
| B20 | 0.4 nM |
| B21 | 0.4 nM |

The binders below were run against T1, human TREM2 (assay: yeast-displayed Fab FACS, 2nd screen 2 nM).

| Binder | binding signal fold over 6E7 parental |
| --- | --- |
| B1 | 1.83 fold |
| B2 | 1.87 fold |
| B3 | 4.17 fold |
| B4 | 3.63 fold |
| B5 | 5.41 fold |
| B6 | 1.45 fold |
| B7 | 3.74 fold |
| B8 | 4.34 fold |
| B9 | 0.66 fold |
| B10 | 3.35 fold |
| B11 | 0.94 fold |
| B12 | 1.78 fold |
| B13 | 5.17 fold |
| B14 | 4.91 fold |
| B15 | 0.83 fold |
| B16 | 2.5 fold |
| B17 | 4.86 fold |
| B18 | 2.54 fold |
| B19 | 5.57 fold |

These binders were tested against T3, soluble human TREM2 protein (TREM2 ECD-huIgG1 Fc fusion protein) (human, UniProt Q9NZC2 19-174, biotinylated) (assay: ELISA, hybridoma supernatant on captured biotinylated TREM2 ECD-Fc).
T3 construct: also called biotinylated soluble human TREM2 protein
T3 sequence: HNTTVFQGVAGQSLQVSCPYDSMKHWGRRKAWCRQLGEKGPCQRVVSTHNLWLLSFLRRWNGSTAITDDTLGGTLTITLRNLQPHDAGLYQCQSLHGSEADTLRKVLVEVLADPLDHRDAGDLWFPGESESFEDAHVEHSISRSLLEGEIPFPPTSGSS
Method: Exhausted hybridoma supernatants were tested for binding to human TREM2 by ELISA. Briefly, neutravidin plates were generated by incubating a 384 well Corning Assay Plate 3702 with neutravidin (Thermo 3100B) at 10 μg/mL (40 μL/well) in 1× PBS at 4° C. overnight. The plates were washed with 1× PBS using a Biotek plate washer and then blocked with 1% milk/1× PBS (90 μL/well) at room temperature (RT) for 30 minutes. The plates were then washed again with 1× PBS using the plate washer. […] The plates were then incubated at RT for 1 hour to immobilize the TREM2 protein to the wells of the plates. Following the incubation, the plates were again washed with 1× PBS using the plate washer. 10 μL of each hybridoma supernatant to be tested and 40 μL of 1% milk/1× PBS (1:5 dilution) were added to each well of the plates and incubated at RT for 1 hour. Again, the plates were washed with 1× PBS using the plate washer. […] After the plates were washed with 1× PBS using the plate washer, 40 μL/well of TMB substrate (Neogen, lot #150114) was added to the plates and the plates were incubated at RT for 30 minutes. The reaction was quenched with 1N hydrochloric acid (40 uL/well) following the incubation period. OD readings at 450 nm were obtained with a plate reader.

| Binder | OD 450 |
| --- | --- |
| B21 | 0.71 OD450 |
